Test results as given in patent US20260132178A1 (SYNERKINE PHARMA B V, published 2026).

T1: IL10 receptor (UniProt Q13651 22-578; Q08334 20-325, limits assumed)
T1 sequence (looked up) 1: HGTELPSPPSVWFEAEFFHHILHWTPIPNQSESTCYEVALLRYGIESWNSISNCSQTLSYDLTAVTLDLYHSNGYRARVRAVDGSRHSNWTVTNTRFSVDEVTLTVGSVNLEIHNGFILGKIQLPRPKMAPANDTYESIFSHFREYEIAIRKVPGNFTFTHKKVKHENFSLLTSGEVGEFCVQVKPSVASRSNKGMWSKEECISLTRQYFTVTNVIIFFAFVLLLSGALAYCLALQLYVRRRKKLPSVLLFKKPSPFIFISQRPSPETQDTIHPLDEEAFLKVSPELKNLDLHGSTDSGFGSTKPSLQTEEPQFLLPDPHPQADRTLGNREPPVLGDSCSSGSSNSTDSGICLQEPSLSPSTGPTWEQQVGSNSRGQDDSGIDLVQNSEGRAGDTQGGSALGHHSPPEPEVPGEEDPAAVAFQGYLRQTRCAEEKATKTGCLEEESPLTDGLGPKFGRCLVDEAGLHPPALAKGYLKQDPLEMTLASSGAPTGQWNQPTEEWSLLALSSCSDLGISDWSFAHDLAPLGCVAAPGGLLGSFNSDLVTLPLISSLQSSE
T1 sequence (looked up) 2: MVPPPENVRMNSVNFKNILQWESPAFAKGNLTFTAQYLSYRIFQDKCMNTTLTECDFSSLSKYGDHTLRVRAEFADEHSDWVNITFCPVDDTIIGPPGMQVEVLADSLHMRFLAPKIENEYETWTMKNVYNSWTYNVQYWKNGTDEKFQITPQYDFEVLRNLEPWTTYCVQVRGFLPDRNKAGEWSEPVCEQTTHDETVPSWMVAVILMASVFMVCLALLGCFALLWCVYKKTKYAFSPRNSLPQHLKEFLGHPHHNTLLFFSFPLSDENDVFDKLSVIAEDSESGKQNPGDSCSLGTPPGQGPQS

T2: IL4 (type II) receptor (UniProt P24394 26-825; P78552 22-427, limits assumed)
T2 sequence (looked up) 1: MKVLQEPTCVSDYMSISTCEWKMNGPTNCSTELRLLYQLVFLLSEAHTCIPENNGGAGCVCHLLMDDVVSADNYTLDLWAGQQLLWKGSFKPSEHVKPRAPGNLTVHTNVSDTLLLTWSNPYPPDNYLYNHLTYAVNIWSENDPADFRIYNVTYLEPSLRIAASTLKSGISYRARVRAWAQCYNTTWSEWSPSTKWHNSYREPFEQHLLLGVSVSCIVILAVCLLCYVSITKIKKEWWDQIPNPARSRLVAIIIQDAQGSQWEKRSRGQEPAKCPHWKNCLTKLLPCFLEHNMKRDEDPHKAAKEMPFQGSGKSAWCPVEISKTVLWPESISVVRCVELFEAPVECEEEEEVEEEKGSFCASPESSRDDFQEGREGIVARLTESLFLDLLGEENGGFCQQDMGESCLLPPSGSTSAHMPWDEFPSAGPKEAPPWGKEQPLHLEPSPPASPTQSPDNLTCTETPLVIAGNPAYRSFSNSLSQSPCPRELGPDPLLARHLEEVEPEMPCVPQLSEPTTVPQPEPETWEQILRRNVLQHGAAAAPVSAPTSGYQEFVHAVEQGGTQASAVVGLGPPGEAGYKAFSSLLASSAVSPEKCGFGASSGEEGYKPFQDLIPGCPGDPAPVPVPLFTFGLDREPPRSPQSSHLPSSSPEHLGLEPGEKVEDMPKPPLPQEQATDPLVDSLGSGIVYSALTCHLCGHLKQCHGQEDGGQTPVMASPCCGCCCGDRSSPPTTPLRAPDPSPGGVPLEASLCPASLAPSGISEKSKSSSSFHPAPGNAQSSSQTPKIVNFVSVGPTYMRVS
T2 sequence (looked up) 2: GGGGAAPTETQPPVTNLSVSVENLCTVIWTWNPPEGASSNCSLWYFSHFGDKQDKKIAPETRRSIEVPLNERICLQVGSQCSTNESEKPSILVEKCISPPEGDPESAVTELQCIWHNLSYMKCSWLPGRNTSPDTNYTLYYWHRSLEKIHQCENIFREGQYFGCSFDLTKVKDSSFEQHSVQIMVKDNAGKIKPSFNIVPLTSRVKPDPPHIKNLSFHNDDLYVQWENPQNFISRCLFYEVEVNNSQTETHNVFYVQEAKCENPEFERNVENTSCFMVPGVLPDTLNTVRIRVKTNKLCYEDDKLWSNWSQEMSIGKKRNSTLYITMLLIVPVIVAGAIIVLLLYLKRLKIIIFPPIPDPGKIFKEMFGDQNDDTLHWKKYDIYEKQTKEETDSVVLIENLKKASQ


These binders were tested against mIL4Ra/mIL13Ra2 (mouse, UniProt P16382 26-257; O88786 22-355) (assay: cell-based or functional assay).
mIL4Ra/mIL13Ra2, sequence (P16382 26-257, chain 1 of 2): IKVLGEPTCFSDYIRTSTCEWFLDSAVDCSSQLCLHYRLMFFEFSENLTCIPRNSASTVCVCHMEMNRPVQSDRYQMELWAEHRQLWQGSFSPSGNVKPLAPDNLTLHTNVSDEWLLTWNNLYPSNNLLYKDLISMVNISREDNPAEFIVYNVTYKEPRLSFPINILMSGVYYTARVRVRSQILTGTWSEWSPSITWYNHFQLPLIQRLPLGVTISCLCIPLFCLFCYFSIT
mIL4Ra/mIL13Ra2, sequence (O88786 22-355, chain 2 of 2): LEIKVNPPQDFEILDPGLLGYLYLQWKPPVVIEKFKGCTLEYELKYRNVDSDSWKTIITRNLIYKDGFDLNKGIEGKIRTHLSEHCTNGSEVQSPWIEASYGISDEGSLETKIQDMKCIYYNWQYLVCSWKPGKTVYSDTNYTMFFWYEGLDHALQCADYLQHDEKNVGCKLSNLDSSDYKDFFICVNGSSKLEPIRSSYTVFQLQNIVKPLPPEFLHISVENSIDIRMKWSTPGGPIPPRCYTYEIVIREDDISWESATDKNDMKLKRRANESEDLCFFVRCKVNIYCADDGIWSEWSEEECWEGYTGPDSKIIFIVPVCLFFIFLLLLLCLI

| Heterologous clustering mIL4Ra/mIL13Ra2 EC50 (NanoBiT enzyme complementation) [pM] | Binder |
| --- | --- |
| 1100 | IL4-13 Fc (mouse) (Fc fusion) chain 1: HIHGCDKNHLREIIGILNEVTGEGTPCTEMDVPNVLTATKNTTESELVCRASKVLRIFYLKHGKTPCLKKNSSVLMELQRLFRAFRCLDSSISCTMNESKSTSLKDFLESLKSIMQMDYSGSGGGGSGTCKPCICTVPEVSSVFIFPPKPKDVLTITLTPKVTCVVVAISKDDPEVQFSWFVDDVEVHTAQTKPREEQINSTFRSVSELPIMHQDWLNGKEFKCRVNSAAFPAPIEKTISKTKGRPKAPQVYTIPPPKKQMAKDKVSLTCMITNFFPEDITVEWQWNGQPAENYKNTQPIMKTDGSYFVYSKLNVQKSNWEAGNTFTCSVLHEGLHNHHTEKSLSHSPGK chain 2: APGPVPRSVSLPLTLKELIEELSNITQDQTPLCNGSMVWSVDLAAGGFCVALDSLTNISNCNAIYRTQRILHGLCNRKAPTTVSSLPDTKIEVAHFITKLLSYTKQLFRHGPFTGSGGGGSGTCKPCICTVPEVSSVFIFPPKPKDVLTITLTPKVTCVVVAISKDDPEVQFSWFVDDVEVHTAQTKPREEQINSTFRSVSELPIMHQDWLNGKEFKCRVNSAAFPAPIEKTISKTKGRPKAPQVYTIPPPKEQMAKDKVSLTCMITNFFPEDITVEWQWNGQPAENYKNTQPIMDTDGSYFVYSELNVQKSNWEAGNTFTCSVLHEGLHNHHTEDSLSHSPGK |
| 187 | IL4-13 (mouse) (ligand) HHHHHHIHGCDKNHLREIIGILNEVTGEGTPCTEMDVPNVLTATKNTTESELVCRASKVLRIFYLKHGKTPCLKKNSSVLMELQRLFRAFRCLDSSISCTMNESKSTSLKDFLESLKSIMQMDYSGSGGGGSGTAPGPVPRSVSLPLTLKELIEELSNITQDQTPLCNGSMVWSVDLAAGGFCVALDSLTNISNCNAIYRTQRILHGLCNRKAPTTVSSLPDTKIEVAHFITKLLSYTKQLFRHGPF |

What follows are binders tested against T1, IL10 receptor (assay: cell-based or functional assay).

| Binder | HEK-Blue IL10 EC50 (STAT-3 mediated SEAP expression) [nM] |
| --- | --- |
| IL4-10M(S) (ligand) KSKAVEQVKNAFNKLQEKGIYKAMSEFDIFINYIEAYMTMKIRNGSGGGGSGTSPGQGTQSENSCTHFPGNLPNMLRDLRDAFSRVKTFFQMKDQLDNLLLKESLLEDFKGYLGCQALSEMIQFYLEEVMPQAENQDPDIKAHVNSLGENLKTLRLRLRRCHRFLPCENGSGGGGSGTHKCDITLQEIIKTLNSLTEQKTLCTELTVTDIFAASKNTTEKETFCRAATVLRQFYSHHEKDTRCLGATAQQFHRHKQLIRFLKRLDRNLWGLAGLNSCPVKEANQSTLENFLERLKTIMREKYSKCSSHHHHHH | 0.117 |
| IL4-10M(J) (ligand) HKCDITLQEIIKTLNSLTEQKTLCTELTVTDIFAASKNTTEKETFCRAATVLRQFYSHHEKDTRCLGATAQQFHRHKQLIRFLKRLDRNLWGLAGLNSCPVKEANQSTLENFLERLKTIMREKYSKCSSGSGGGGSGTSPGQGTQSENSCTHFPGNLPNMLRDLRDAFSRVKTFFQMKDQLDNLLLKESLLEDFKGYLGCQALSEMIQFYLEEVMPQAENQDPDIKAHVNSLGENLKTLRLRLRRCHRFLPCENGGGSGGKSKAVEQVKNAFNKLQEKGIYKAMSEFDIFINYIEAYMTMKIRN | 0.0778 |
| IL4-10 fusion (wt, dimer) (ligand) HKCDITLQEIIKTLNSLTEQKTLCTELTVTDIFAASKNTTEKETFCRAATVLRQFYSHHEKDTRCLGATAQQFHRHKQLIRFLKRLDRNLWGLAGLNSCPVKEANQSTLENFLERLKTIMREKYSKCSSGSGGGGSGTSPGQGTQSENSCTHFPGNLPNMLRDLRDAFSRVKTFFQMKDQLDNLLLKESLLEDFKGYLGCQALSEMIQFYLEEVMPQAENQDPDIKAHVNSLGENLKTLRLRLRRCHRFLPCENKSKAVEQVKNAFNKLQEKGIYKAMSEFDIFINYIEAYMTMKIRN | 0.0289 |
| IL4-10M(J) mouse Fc (Fc fusion) chain 1: HKCDITLQEIIKTLNSLTEQKTLCTELTVTDIFAASKNTTEKETFCRAATVLRQFYSHHEKDTRCLGATAQQFHRHKQLIRFLKRLDRNLWGLAGLNSCPVKEANQSTLENFLERLKTIMREKYSKCSSGSGGGGSGTCKPCICTVPEVSSVFIFPPKPKDVLTITLTPKVTCVVVAISKDDPEVQFSWFVDDVEVHTAQTKPREEQINSTFRSVSELPIMHQDWLNGKEFKCRVNSAAFPAPIEKTISKTKGRPKAPQVYTIPPPKKQMAKDKVSLTCMITNFFPEDITVEWQWNGQPAENYKNTQPIMKTDGSYFVYSKLNVQKSNWEAGNTFTCSVLHEGLHNHHTEKSLSHSPGK chain 2: SPGQGTQSENSCTHFPGNLPNMLRDLRDAFSRVKTFFQMKDQLDNLLLKESLLEDFKGYLGCQALSEMIQFYLEEVMPQAENQDPDIKAHVNSLGENLKTLRLRLRRCHRFLPCENGGGSGGKSKAVEQVKNAFNKLQEKGIYKAMSEFDIFINYIEAYMTMKIRNTGSGGGGSGTCKPCICTVPEVSSVFIFPPKPKDVLTITLTPKVTCVVVAISKDDPEVQFSWFVDDVEVHTAQTKPREEQINSTFRSVSELPIMHQDWLNGKEFKCRVNSAAFPAPIEKTISKTKGRPKAPQVYTIPPPKEQMAKDKVSLTCMITNFFPEDITVEWQWNGQPAENYKNTQPIMDTDGSYFVYSELNVQKSNWEAGNTFTCSVLHEGLHNHHTEDSLSHSPGK | 0.52 |

Second part, the binder after the results:

| HEK-Blue IL10 EC50 (STAT-3 mediated SEAP expression) [nM] | Binder |
| --- | --- |
| 0.0634 | IL10M(J) (ligand) SPGQGTQSENSCTHFPGNLPNMLRDLRDAFSRVKTFFQMKDQLDNLLLKESLLEDFKGYLGCQALSEMIQFYLEEVMPQAENQDPDIKAHVNSLGENLKTLRLRLRRCHRFLPCENGGGSGGKSKAVEQVKNAFNKLQEKGIYKAMSEFDIFINYIEAYMTMKIRN |
| 0.149 | IL10M(S) (ligand) KSKAVEQVKNAFNKLQEKGIYKAMSEFDIFINYIEAYMTMKIRNGSGGGGSGTSPGQGTQSENSCTHFPGNLPNMLRDLRDAFSRVKTFFQMKDQLDNLLLKESLLEDFKGYLGCQALSEMIQFYLEEVMPQAENQDPDIKAHVNSLGENLKTLRLRLRRCHRFLPCEN |

These binders were tested against T2, IL4 (type II) receptor (assay: cell-based or functional assay).

| HEK-Blue IL4/13 EC50 (STAT6-induced SEAP expression) [nM] | Binder |
| --- | --- |
| 0.0201 | IL4-Fc (Fc fusion) HKCDITLQEIIKTLNSLTEQKTLCTELTVTDIFAASKNTTEKETFCRAATVLRQFYSHHEKDTRCLGATAQQFHRHKQLIRFLKRLDRNLWGLAGLNSCPVKEANQSTLENFLERLKTIMREKYSKCSSGSGGGGSGTCPPCPAPELLGGPSVFLFPPKPKDTLMISRTPEVTCVVVDVSHEDPEVKFNWYVDGVEVHNAKTKPREEQYNSTYRVVSVLTVLHQDWLNGKEYKCKVSNKALPAPIEKTISKAKGQPREPQVCTLPPSRDELTKNQVSLSCAVKGFYPSDIAVEWESNGQPENNYKTTPPVLDSDGSFFLVSKLTVDKSRWQQGNVFSCSVMHEALHNHYTQKSLSLSPGK |
